# PMC3737171, “Genetic Selection for Constitutively Trimerized Human HSF1 Mutants Identifies a Role for Coiled-Coil Motifs in DNA Binding” (G3: Genes|Genomes|Genetics, 2013)
# Residue numbers refer to the chain shown, from its start. Names may count otherwise.
# B1: human HSF1 M161I, expressed in yeast (natural protein, UniProt Q00613 1-529, looked up)
# chain: MDLPVGPGAAGPSNVPAFLTKLWTLVSDPDTDALICWSPSGNSFHVFDQGQFAKEVLPKYFKHNNMASFVRQLNMYGFRKVVHIEQGGLVKPERDDTEFQHPCFLRGQEQLLENIKRKVTSVSTLKSEDIKIRQDSVTKLLTDVQLMKGKQECMDSKLLAIKHENEALWREVASLRQKHAQQQKVVNKLIQFLISLVQSNRILGVKRKIPLMLNDSGSAHSMPKYSRQFSLEHVHGSGPYSAPSPAYSSSSLYAPDAVASSGPIISDITELAPASPMASPGGSIDERPLSSSPLVRVKEEPPSPPQSPRVEEASPGRPSSVDTLLSPTALIDSILRESEPAPASVTALTDARGHTDTEGRPPSPPPTSTPEKCLSVACLDKNELSDHLDAMDSNLDNLQTMLSSHGFSVDTSALLDLFSPSVTVPDMSLPDLDSSLASIQELLSPQEPPRPPEAENSSPDSGKQLVHYTAQPLFLLDPGSVDTGSNDLPVLFELGEGSYFSEGDGFAEDPTISLLTGSEPPKAKDPTVS
# notes: human heat shock transcription factor 1 (HSF1) with M161I in LZ1-3; Found by random mutagenesis in E. coli XL-1 Red; also called M161I mutant; source: S. cerevisiae PS145, mutant of plasmid pRS423GPD-hHSF1, in total protein extract
# B2: human HSF1 H179Y, expressed in yeast (natural protein, UniProt Q00613 1-529, looked up)
# chain: B1 chain with I161M, H179Y
# notes: human heat shock transcription factor 1 (HSF1) with H179Y between LZ1/2 and LZ3; Found by random mutagenesis in E. coli XL-1 Red; also called H179Y mutant; source: S. cerevisiae PS145, mutant of plasmid pRS423GPD-hHSF1, in total protein extract
# B3: human HSF1 L402P, expressed in yeast (natural protein, UniProt Q00613 1-529, looked up)
# chain: B1 chain with I161M, L402P
# notes: human heat shock transcription factor 1 (HSF1) with L402P in LZ4; Found by random mutagenesis in E. coli XL-1 Red; also called L402P mutant; source: S. cerevisiae PS145, mutant of plasmid pRS423GPD-hHSF1, in total protein extract
# B4: human HSF1 L189P, expressed in yeast (natural protein, UniProt Q00613 1-529, looked up)
# chain: B1 chain with I161M, L189P
# notes: human heat shock transcription factor 1 (HSF1) with L189P in LZ3; Found by random mutagenesis in E. coli XL-1 Red; also called L189P HSF1 mutant; source: S. cerevisiae PS145, mutant of plasmid pRS423GPD-hHSF1, in total protein extract
# B5: human HSF1 K178E, expressed in yeast (natural protein, UniProt Q00613 1-529, looked up)
# chain: B1 chain with I161M, K178E
# notes: human heat shock transcription factor 1 (HSF1) with K178E between LZ1/2 and LZ3; Found by random mutagenesis in E. coli XL-1 Red; also called K178E mutant; source: S. cerevisiae PS145, mutant of plasmid pRS423GPD-hHSF1, in total protein extract
# B6: human HSF1 H179Y, expressed in hsf1-/- mouse embryonic fibroblasts (natural protein, UniProt Q00613 1-529, looked up)
# chain: B1 chain with I161M, H179Y
# notes: human heat shock transcription factor 1 (HSF1) with H179Y between LZ1/2 and LZ3; also called H179Y mutant; source: hsf1-/- MEFs, transfected, in protein extract
# B7: human HSF1 L189P, expressed in hsf1-/- mouse embryonic fibroblasts (natural protein, UniProt Q00613 1-529, looked up)
# chain: B1 chain with I161M, L189P
# notes: human heat shock transcription factor 1 (HSF1) with L189P in LZ3; also called L189P HSF1 mutant; source: hsf1-/- MEFs, transfected, in protein extract
# B8: human HSF1 L402P, expressed in hsf1-/- mouse embryonic fibroblasts (natural protein, UniProt Q00613 1-529, looked up)
# chain: B1 chain with I161M, L402P
# notes: human heat shock transcription factor 1 (HSF1) with L402P in LZ4; also called L402P mutant; source: hsf1-/- MEFs, transfected, in protein extract
# B9: human HSF1 K178E, expressed in hsf1-/- mouse embryonic fibroblasts (natural protein, UniProt Q00613 1-529, looked up)
# chain: B1 chain with I161M, K178E
# notes: human heat shock transcription factor 1 (HSF1) with K178E between LZ1/2 and LZ3; also called K178E mutant; source: hsf1-/- MEFs, transfected, in protein extract
# B10: human HSF1 M161I, expressed in hsf1-/- mouse embryonic fibroblasts (natural protein, UniProt Q00613 1-529, looked up)
# chain: B1 chain
# notes: human heat shock transcription factor 1 (HSF1) with M161I in LZ1-3; also called M161I mutant; source: hsf1-/- MEFs, transfected, in protein extract
# Biological target: the molecule itself
# Test: cross-linking; EGS cross-linking of total protein extracts of yeast PS145 grown on galactose medium; SDS-PAGE and immunoblot with an HSF1-specific antibody
row,Molecule,stoichiometry N
1,B1,3
2,B2,3
3,B3,3
4,B4,3
5,B5,3

# Biological target: the molecule itself
# Test: cross-linking; EGS cross-linking of extracts of transfected hsf1-/- MEFs, without stress and after heat stress; immunoblot for HSF1
row,Molecule,stoichiometry N
1,B6,3
2,B7,3
3,B8,3
4,B9,3
5,B10,3

# Biological target: wild-type human HSF1, expressed in hsf1-/- mouse embryonic fibroblasts (human) (UniProt Q00613)
# Test: as above
row,Molecule,stoichiometry N
1,"wild-type human HSF1, expressed in hsf1-/- mouse embryonic fibroblasts (from UniProt Q00613 1-529) (natural protein)",3
